Laboratory results taken from article PMC11802746 (Nature Communications, 2025).

Target: GST-MST3 (human, UniProt Q9Y6E0-2 1-431)
Test: pull-down

B1: His-SUMO-tagged PGAM5 (25-289) (domain or fragment, human, UniProt Q96HS1 25-289, looked up)
chain: AVAVGKPRAGGDAEPRPAEPPAWAGGARPGPGVWDPNWDRREPLSLINVRKRNVESGEEELASKLDHYKAKATRHIFLIRHSQYHVDGSLEKDRTLTPLGREQAELTGLRLASLGLKFNKIVHSSMTRAIETTDIISRHLPGVCKVSTDLLREGAPIEPDPPVSHWKPEAVQYYEDGARIEAAFRNYIHRADARQEEDSYEIFICHANVIRYIVCRALQFPPEGWLRLSLNNGSITHLVIRPNGRVALRTLGDTGFMPPDKITRS
Does B1 bind?
Result: binds
